In the DeepSol protein solubility set:

test: soluble on expression in E. coli; label from the status in PepcDB or PDB records

Sequence	soluble on expression in E. coli
ATMPLSPLLTAVIETTLNTLINDDPALGRKLLRLKGKVISLHLRELNQSLTFVFSQRIDVMTGFEGQPDCYLALNLSILPQLREQANITQLIKQDKLELEGDIQLAQKFSELMTDCKPDVEEWLSRITGDVVAHSVVHGVKSIVGALKQQAHKHQNHLAQVLTEEWRIAPPPLEIAYFCDQVDDVKSHAARLEARLNQLLEKA	not soluble
MGSDKIHHHHHHMMPQTSLHQHVMNWAISVPGDKTLKRDIFNNIWITASQRYEYQHLTFMAQGIVELLNTEIGGVDVSIPINLFLQSTEATKYDAEMLDFAQRIVTVKDRQHIALLSENILQKMPYQPDSTSVHTTATQAFQAGQGVCQDHAHVLIAMCRALQLPARYVSGYLFDQNSPHLASHAWAEVFLDNQWYCFDVSNQLFTPKHHIYLAVGRDYLDVAPIRGVREKGGTENMMSVVQVLAC	not soluble
MSVDPACPQSLPCFEASDCKESSPMPVICGPEENYPSLQMSSAEMPHTETVSPLPSSMDLLIQDSPDSSTSPKGKQPTSAENSVAKKEDKVPVKKQKTRTVFSSTQLCVLNDRFQRQKYLSLQQMQELSNILNLSYKQVKTWFQNQRMKSKRWQKNNWPKNSNGVTQKASAPTYPSLYSSYHQGCLVNPTGNLPMWSNQTWNNSTWSNQTQNIQSWSNHSWNTQTWCTQSWNNQAWNSPFYNCGEESLQSCMHFQPNSPASDLEAALEAAGEGLNVIQQTTRYFSTPQTMDLFLNYSMNMQPEDV	soluble
MGSDKIHHHHHHMNARKGGVDRSRAEAGMADTLFFFHNPKAGGTSVEDALRSLFPDERCCPRIENDATEHAQRAGRYAGFRGYDFYAGHYGFDIYQAVGSGMAAATNFRWPIDRIVSVYRYFHHIVELSDSQVRDPRFRAVRLAKTLCMDDFVTCDDPAVQLHTHDHHFRQLTGSGWSMANEQDLSAAIRLINQMVWFYVCEHPHESLAWAEEAFCRALPEIPRLNITRPDSASETGLSARACRQLILQNERDIVLYQYALERLIAQVTHEPSRLVA	not soluble
MRRVEKVIIVEGRSDKQKVAAVLNEPVVIVCTNGTISDARLEELADELEGYDVYLLADADEAGEKLRRQFRRMFPEAEHLYIDRAYREVAAAPIWHLAQVLLRARFDVRIESLMRGRGE	soluble
GAMSSPAGSPTEQAPPAKGSVKVLRTVATGLNSPWGLAPLPGGDLLVSSRDEATITRVDAKTGRKTELGEVPGVSPSGEGGLLGIALSPDYASDHMVYAYFTSASDNRIVRMLYDEKKPSGEQLGAPDTVFRGIPKGVIHNGGRIAFGPDKMLYAGTGESGDTGLSQDRKSLGGKILRMTPDGEPAPGNPFPGSPVYSYGHRNVQGLAWDDKQRLFASEFGQDTWDELNAIKPGDNYGWPEAEGKGGGSGFHDPVAQWSTDEASPSGIAYAEGSVWMAGLRGERLWRIPLKGTAAAADPQAFLEGEYGRLRTVAPAGGDKLWLVTSNTDGRGDAKGGDDRILELEVE	soluble
MNEEQRKAGTINILAERDRKAEKDYSKYFEQVYQPPSLKEAKKRGKQEVQYNRDFHIDEKYKGMGKGRTFLIKTYGCQMNAHDTEVMAGILNALGYSATSDINEADVILINTCAIRENAENKVFSEIGNLKHLKKERPDCLIGVCGCMSQEESVVNKILKSYQNVDMVFGTHNIHHLPEILEEAYLSKAMVVEVWSKEGDIIENLPKVRDGHIKAWVNIMYGCDKFCTYCIVPFTRGKERSRRPEDIIDEVRELAREGYQEITLLGQNVNSYGKDIEGLDYELGDLLEDISKIDIPRVRFTTSHPWDFTDRMIEVIAKGGNIVPHIHLPVQSGNNQVLKIMGRKYTRESYLDLVSRIKEAIPNVALTTDIIVGYPNETEEQFEETLSLYDDVQFEHAYTYLYSQRDGTPAAKMKDNVPLEVKKERLQRLNKKVGIYSQQAMSQYEGKIVTVLCEGSSKKDENVLAGYTDKNKLVNFKGPRESIGKLVDVKIDEAKQYSLNGTFIQEHQRSMVTQLEHHHHHH	soluble
MQDEKNFMSGVKENLDVLFTKLEKFLRTETVIGQPIKVGETTLIPIVTVMFGCGTGGGVGDNKGIKGQGGGLGTGARISPDAVLVIKNDDVQMLPVKKGANLSKLIEMVPEIVSKIKIDKENKEKEEVKKEENLEHHHHHH	soluble
MAHHHHHHMLKVSSKEHYAEIKKKAEDSLGLVVHFSATWCEPCTAVNEHLTKQAAEYGDNVVFAEVDCGELGDVCEAEGVESVPFVAYFRTPLVGDDRRVERVADVAGAKFDQIDMNTHSLFGEKGGNRGSAEGLCHSGRLPALPHEAARGRNVHHRHPISSALRLYWSAV	not soluble
AIAKILLVFDFDNTIIDDNSDTWIVQCAPNKKLPIELRDSYRKGFWTEFMGRVFKYLGDKGVREHEMKRAVTSLPFTPGMVELFNFIRKNKDKFDCIIISDSNSVFIDWVLEAASFHDIFDKVFTNPAAFNSNGHLTVENYHTHSCNRCPKNLCKKVVLIEFVDKQLQQGVNYTQIVYIGDGGNDVCPVTFLKNDDVAMPRKGYTLQKTLSRMSQNLEPMEYSVVVWSSGVDIISHLQFLIKD	soluble
MAKIILRHLIEIPVRYQEEFEARGLEDCRLDHALYALPGPTIVDLRKTRAAQSPPVDSAAETPPREGKSHFQILLDVVQFLPEDIIIQTFEGWLLIKAQHGTRMDEHGFISRSFTRQYKLPDGVEIKDLSAVLCHDGILVVEVKDPVGTK	soluble
MGSDKIHHHHHHMLDLINVSYDTQIPNNVGLSQDKKVLKALEKWHPGYINWWNDLIPQNFQESLVYLRTAVSVDPKGWAKFDYVKMPEYRWGVLLAPQVENRTIPCGEHYGQPAWQEVPGEYRNLLKRLIVIQGDTEPASVEQQRLLALTAPSLYDMRNLFQVNVEEGRHLWAMVYLLHKYFGRDGREEADDLLRRQSGSEEAPRMLGAFNEETPDWLSFFMFTYFTDRDGKMQLESLAQSGFDPLSRTCRFMLTEEAHHMFVGETGVGRTIERTCQVMKENGIDDPYDTGRIRDLGVIDLPLIQKKLNLHYTLSLDLFGQEVSTNAANAFNAGIKGRYMENRLTDDHQLQQDTYTVWDFEDGKAVQKQVAALTAINMRLRDDYTKDAAGGVGRWNKIIEKHGVDFQLSLPHEAFHRKIGVFADKHFDPSGQPVSGAEYDAGLPKWLPTHADGDFIQSLMKPCYEPGQYARWIAPPKVGIDNRPGDFEYVKLHMA	not soluble
MSLESRFCDICGKPAKTYQFGSLLCEDPECLKKAQKLRGGPAGHKLRVISVGSTNPVKVSAVEKAIEKTVGTMLVSSVDTKSGVSDQPQGFEETFKGAYNRAKGAFEKVNCVYGIGIEAGIVEIGEKKLDIHICVVYNGLDYSVGTSQAFQIPKDISDMINEGYECSKIAEETYRVKNIGQKNGIIGVLTDNNILREQLCIDSVVMAMIPKYRRNSQIREGHHHHHH	soluble
MGSDKIHHHHHHMDKIRVIELGSNISAPLVGTILADLGAEVIKVEPPPYGDDRRRVKPEINGISVYFASTNRGKKSVVINLKSDEGYEIFQRLVKTADVIVTNYRPSALKRLKVDYESVKRINPKIIYCSITGFGNLTEEADRPAYDPIILALSGLMDMTGEENPVKFATSISDITTGLLATVMILWALNKGGPTFIDVPMIYTQFYLTLEDAYMYLNTGKVPKRMGSAHRYLVPYQAFKVVDGYIYVAVFNDEQYLKLCKALNREDLCKFDTLQKRVENRDYLIKELGKIFEKNTRDYWVDLLSKADVPVAPVLSLEQAFKKYGNRLVYEIEGVKYIDFPINITSNKSKAPRLGENTKEVLLELGYSEGEINRLAEKGIIMLI	not soluble
MMHNPAHPGEVLKVAFLEEMGLTIQKLADHLHMTRASLSRVINGHASMSTELAIKLELAGFSKAKFWLDMQTNYNLWKTMQQAQPPISPLVSDSPQTSL	not soluble
MVAMFLAVAVVLGLATSPTAEGGKATTEEQKLIEDVNASFRAAMATTANVPPADKYKTFEAAFTVSSKRNLADAVSKAPQLVPKLDEVYNAAYNAADHAAPEDKYEAFVLHFSEALRIIAGTPEVHAVKPGA	soluble
MQLNATFYSGTCPNASAIVRSTIQQALQSDTRIGASLIRLHFHDCFVNGCDASILLDDTGSIQSEKNAGPNVNSARGFNVVDNIKTALENACPGVVSCSDVLALASEASVSLAGGPSWTVLLGRRDSLTANLAGANSSIPSPIESLSNITFKFSAVGLNTNDLVALSGAHTFGRARCGVFNNRLFNFSGTGNPDPTLNSTLLSTLQQLCPQNGSASTITNLDLSTPDAFDNNYFANLQSNDGLLQSDQELFSTTGSSTIAIVTSFASNQTLFFQAFAQSMINMGNISPLTGSNGEIRLDCKKVNGS	soluble
MDQKQLQALVEQISIRVFGKPFRHTAFFNPRLRTTGGRYMLQTHNIELNKKHYEQFGEEELIAIIKHELCHYHLHLEGKGYRHRDRDFRELLQKVGAPRYCRPLARNTKAPKTIYTYICTSCGLTYRRKRRINIDRYVCGRCRSKLKRS	not soluble
WTVNPYRGCTHACVYCFARKTHSYLDLDTGLGFDSQIVVKINAPDLLRRQLASRRWHGEHVAMGTNVDCYQRAEGRYQLMPGIIAALRDHANPFSILTKGTLILRDLDLLEQAAEVTDVGISVSVGFTDHELWRTVEPGTPAPERRLDVVRTLSEHGIGCGVLMAPVIPFLSDQPAQLRATVRAIAAAGATSVTPLVLHLRPGAREWFMAWLEHHHPYLVRRYERLYAEGAYAPKWYQRRITRQVHELAQEYGIGPTRAGMPRRIPEPEPETPPTPEPTQLTLL	not soluble
MSTETIEIFNNSDEWANQLKHALSKGENLALLHGLTPDILDRIYAYAFDYHEKGNITDAEIYYKFLCIYAFENHEYLKDFASVCQPKKKYQQAYDLYKLSYNYFPYDDYSVIYRMGQCQIGAKNIDNAMQCFYHIINNCEDDSVKSKAQAYIELLNDNSEDNGLEHHHHHH	not soluble
MKASIYDFTLKELSQLLKPSFRAKQLYLWLYAKYKTSFKDMQNNFSKDFIAYLEREFALRTIEITHVRESVDGSKKYLFKSLRDNHTFEAVLLKMKDKKIDAETNAILEREKYTVCVSCQIGCQVGCSFCFTQKGGFVRNLKASEIIQQALLIKEDNNLPLEKALNIVFMGMGEPLNNLDEVCKAIEIFNTGMQISPKRITISTSGVADKIPILAGKNLGVQLAISLHAVDDKTRSSLMPLNKKYNIECVLNEVRKWPLEQRKRVMFEYLLIKDLNDSLDCAKKLLKLLNGIKSKVNLILFNPHEGSKFERPSLENARMFADFLNSKGLLCTIRESKALDIEAACGQLREKKLSQQILEHHHHHH	soluble
MGHHHHHHSHKELQRRRRSLALPGLQGCAELRQKLSLNFHSLCEQQPIGRRLFRDFLATVPTFRKAATFLEDVQNWELAEEGPTKDSALQGLVATCASAPAPGNPQPFLSQAVATKCQAATTEEERVAAVTLAKAEAMAFLQEQPFKDFVTSAFYDKFLQWKLFEMQPVSDKYFTEFRVLGKGGFGEVCAVQVKNTGKMYACKKLDK	soluble
MQSWKERRDFNIVKQDLDFSCGAASVVTLLNNFYGQKLTEEDVLKKLDKEQMPASFEDMRRIMPDLGFEAKGYALSFEQLAQLQIPVIVYLKYRKDDHFSVLRGIDGNTVLLADPSLGHVSMSRAQFLDAWQTREGNLAGKILAVVPKGRDAGGDKAFFTRSPKRQTEFAVGQVKWWRAY	not soluble
MGSDKIHHHHHHMLNDRARILLKTLVERYISEGEPVGSRTLSKHAGLDLSPASIRNIMSDLEEMGFVASPHTSAGRVPTPRGYRFFVDTLLTVRPLDQVSVNHLENSLAASDPQRLMTAASTLLSDLSQFAGLVMTPRRNPAFRQIEFLTLSDKRVLLIIVTMEGEVENRVIVTEQSYSAAALTEAANYFNQNFAGHSFDHVRSKLRDELGRMRDDITRLMAAAVDAGTQALDASQDNVVVSGSRKLLDVEELSSNMRSLRRLFDAFEKKTGLLQLLDQSRSAAGVQIFIGGESELLPLDECSLVTAPYSVDGVVVGTLGVVGPTRMAYERVVPIVDVTAKILSSALSQHK	not soluble
